The labels stand for the following.
B3: Cdc24-mScarlet-TsCC(B) (other, not shown: large carriers)
chain: MAIQTRFASGTSLSDLKPKPSATSISIPMQNVMNKPVTEQDSLFHICANIRKRLEVLPQLKPFLQLAYQSSEVLSERQSLLLSQKQHQELLKSNGANRDSSDLAPTLRSSSISTATSLMSMEGISYTNSNPSATPNMEDTLLTFSMGILPITMDCDPVTQLSQLFQQGAPLCILFNSVKPQFKLPVIASDDLKVCKKSIYDFILGCKKHFAFNDEELFTISDVFANSTSQLVKVLEVVETLMNSSPTIFPSKSKTQQIMNAENQHRHQPQQSSKKHNEYVKIIKEFVATERKYVHDLEILDKYRQQLLDSNLITSEELYMLFPNLGDAIDFQRRFLISLEINALVEPSKQRIGALFMHSKHFFKLYEPWSIGQNAAIEFLSSTLHKMRVDESQRFIINNKLELQSFLYKPVQRLCRYPLLVKELLAESSDDNNTKELEAALDISKNIARSINENQRRTENHQVVKKLYGRVVNWKGYRISKFGELLYFDKVFISTTNSSSEPEREFEVYLFEKIIILFSEVVTKKSASSLILKKKSSTSASISASNITDNNGSPHHSYHKRHSNSSSSNNIHLSSSSAAAIIHSSTNSSDNNSNNSSSSSLFKLSANEPKLDLRGRIMIMNLNQIIPQNNRSLNITWESIKEQGNFLLKFKNEETRDNWSSCLQQLIHDLKNEQFKARHHSSTSTTSSTAKSSSMMSPTTTMNTPNHHNSRQTHDSMASFSSSHMKRVSDVLPKRRTTSSSFESEIKSISENFKNSIPESSILFRISYNNNSNNTSSSEIFTLLVEKVWNFDDLIMAINSKISNTHNNNISPITKIKYQDEDGDFVVLGSDEDWNVAKEMLAENNEKFLNIRLYVEVAEEVKAVSAALSERITQLATELNDKAVRAAERRVAEVTRAAGEQTAQAERELADAAQTVDDLEEKLVELQDRYDSLTLALESERSLRQQHDVEMAQLKERLAAAEENTRQEEERYQEQKTVLQDALNAEQAQHKNTREDLQKRLEQISVEANARTEELKSERDKVNTFLTRLESQENALASEEQQHLATRETLQQRLEQAIADTQARAGEIALERDRVSSLTARLESQEKASSEQLVRMGSEIASLTERCTQLENQRDDARLETMGEKETVAALRGEAEALKRQNQSLMAALSGNKQTGGQNA

One test deals with T1, RGG-SZ2 (Caenorhabditis elegans).
T1 construct: Purified from E. coli; also called single RGG domain tagged with SZ2
T1 chain: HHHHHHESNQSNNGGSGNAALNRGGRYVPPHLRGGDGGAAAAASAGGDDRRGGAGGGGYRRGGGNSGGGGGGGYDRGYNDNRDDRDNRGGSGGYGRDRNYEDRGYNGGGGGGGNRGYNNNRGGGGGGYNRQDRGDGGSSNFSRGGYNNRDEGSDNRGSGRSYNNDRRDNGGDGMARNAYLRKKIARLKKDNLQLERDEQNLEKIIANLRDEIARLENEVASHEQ
The experiment in a line: fluorescence microscopy of purified proteins, 4 µM.

The test “Cdc24-mScarlet-TsCC(B)” has as its target B3. The test can be described thus: fluorescence microscopy of client localization in yeast.
Test [1] has as its target TsCC(A)-(RGG)3-GFP scaffold (Caenorhabditis elegans). The test can be described thus: cell-based or functional assay.

B1: SZ1-RGG (other)
chain: HHHHHHMNLVAQLENEVASLENENETLKKKNLHKKDLIAYLEKEIANLRKKIEEESNQSNNGGSGNAALNRGGRYVPPHLRGGDGGAAAAASAGGDDRRGGAGGGGYRRGGGNSGGGGGGGYDRGYNDNRDDRDNRGGSGGYGRDRNYEDRGYNGGGGGGGNRGYNNNRGGGGGGYNRQDRGDGGSSNFSRGGYNNRDEGSDNRGSGRSYNNDRRDNGGDG
notes: Purified from E. coli; also called single RGG domain tagged with SZ1
Take B1: the binding result with RGG-SZ2 is given as “binds”.

B2: (RGG)3 condensates that lack the interaction tag (other)
chain: ESNQSNNGGSGNAALNRGGRYVPPHLRGGDGGAAAAASAGGDDRRGGAGGGGYRRGGGNSGGGGGGGYDRGYNDNRDDRDNRGGSGGYGRDRNYEDRGYNGGGGGGGNRGYNNNRGGGGGGYNRQDRGDGGSSNFSRGGYNNRDEGSDNRGSGRSYNNDRRDNGGDGESNQSNNGGSGNAALNRGGRYVPPHLRGGDGGAAAAASAGGDDRRGGAGGGGYRRGGGNSGGGGGGGYDRGYNDNRDDRDNRGGSGGYGRDRNYEDRGYNGGGGGGGNRGYNNNRGGGGGGYNRQDRGDGGSSNFSRGGYNNRDEGSDNRGSGRSYNNDRRDNGGDGESNQSNNGGSGNAALNRGGRYVPPHLRGGDGGAAAAASAGGDDRRGGAGGGGYRRGGGNSGGGGGGGYDRGYNDNRDDRDNRGGSGGYGRDRNYEDRGYNGGGGGGGNRGYNNNRGGGGGGYNRQDRGDGGSSNFSRGGYNNRDEGSDNRGSGRSYNNDRRDNGGDG
notes: Control scaffold without coiled-coil tag; The other scaffolds carry GFP; also called control scaffolds that lack the cognate coiled-coil tag
On to B2, for which the binding result in the test with Cdc24-mScarlet-TsCC(B) was “no binding”. With B3, the “fold decrease in rate of cell proliferation in liquid culture” value in test [1] was around 12 fold.
